Ends that are not written are not given here. fluorophore = not defined here
Assays:
TMR-BID BH3 = assay: fluorescence polarisation; fluorescence anisotropy; Bcl-xL titrated into TMR-BID BH3 (5 nM) in sodium phosphate buffer (50 mM, pH 7.5) with sodium chloride (10 mM), 15 °C; fit to the Langmuir isotherm, apparent dissociation constant, at least three independent curves averaged
Bcl-xL = Bcl-xL (UniProt Q07817); assay: not stated; fluorescently labelled peptide with Bcl-xL; data in Table S4

Kd (TMR-BID BH3) [nM]	Kd (Bcl-xL) [nM]	Molecule
27	–	Bcl-xL (from UniProt Q07817-1 1-209) (domain or fragment)
–	46	DC(fluorophore)AEDIGVNIARHLAQVGDSIDRSI (reading uncertain; also: fluorophore not named) [LOV-BID peptide]

Reference: article PMC5063126
